Common to all, as to assay: BIAcore
A general note: Surface plasmon resonance follows binding to a sensor surface in real time, without labels.

Assay [1] has as its target T1, recombinant human IL-12 (rhIL-12) (human, UniProt P29459 23-219; P29460 23-328).
T1 chain 1: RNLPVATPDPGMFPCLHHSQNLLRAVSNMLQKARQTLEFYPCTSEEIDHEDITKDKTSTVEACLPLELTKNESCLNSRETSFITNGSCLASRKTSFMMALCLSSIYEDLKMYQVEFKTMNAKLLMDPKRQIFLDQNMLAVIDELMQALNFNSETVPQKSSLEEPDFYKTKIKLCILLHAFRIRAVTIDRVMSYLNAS
T1 chain 2: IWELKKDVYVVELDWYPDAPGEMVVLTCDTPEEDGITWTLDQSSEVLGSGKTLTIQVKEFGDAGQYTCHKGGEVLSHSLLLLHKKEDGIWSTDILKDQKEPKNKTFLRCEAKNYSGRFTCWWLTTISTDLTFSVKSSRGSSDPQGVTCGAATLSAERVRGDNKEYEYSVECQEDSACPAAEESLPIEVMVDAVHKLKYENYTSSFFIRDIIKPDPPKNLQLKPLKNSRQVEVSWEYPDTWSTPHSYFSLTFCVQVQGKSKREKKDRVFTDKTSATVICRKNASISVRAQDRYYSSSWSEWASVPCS

For assay [2], the target named is T2, recombinant human interleukin 12 (p40/p35 heterodimer) (human, UniProt P29460 23-328; P29459 23-219).
T2 chain 1: T1 chain 2
T2 chain 2: T1 chain 1

Assay [3] addresses T1, recombinant human IL-12 (rhIL-12).
For assay [4] the target is unchanged.

A word on the koff: it is the rate constant with which the complex falls apart.

Like-named read-outs stand apart in the source and are kept apart here.

As for HNDQRPS [Y61 L50 H], the koff in assay [1] was 0.000761 s⁻¹.

On to FIRYDFSNKYYADSVKG [Y61 H54 F], for which, in assay [2], the koff stood at 0.000663 s⁻¹.

With SGGRSNIGSTTVK [Y61 L31 T], the koff in assay [3] came to 0.000309 s⁻¹.

On to ANDQRPS [Y61 L50 A], for which, in assay [1], the koff turned out to be 0.000372 s⁻¹.

Regarding GNDYRPS [Y61 L53 Y], in assay [1], the koff was 0.000733 s⁻¹.

On to SGGRSNIGSKTVK [Y61 L31 K], for which, in assay [3], the koff is 0.000331 s⁻¹.

As to HGSHDA [Y61 H102 A], in assay [4], the koff is 0.000382 s⁻¹.

PNDQRPS [Y61 L50 P]: in assay [1], the koff is 0.00041 s⁻¹.

In the case of FIRYDGSTKYYADSVKG [Y61 H56 T], the koff in assay [2] is 0.000235 s⁻¹.

Regarding SGGRSNIGRNTVK [Y61 L30 R], the dissociation rate constant (koff) in assay [3] was found to be 0.000182 s⁻¹.

FIRYDGSSKYYADSVKG [Y61 H56 S]: the koff in assay [2] stood at 0.000624 s⁻¹.

As for RNDQRPS [Y61 L50 R], in assay [1], the koff came out at 0.000444 s⁻¹.

FIRYDGSNKLYADSVKG [Y61 H58 L]: in assay [2], the dissociation rate constant (koff) was 0.00073 s⁻¹.

As to SGGRSNIGSNIVK [Y61 L32 I], in assay [3], the koff turned out to be 0.00154 s⁻¹.

Consider SGGRSNIGKNTVK [Y61 L30 K], for which, in assay [3], the koff amounted to 0.000346 s⁻¹.

FIRYDGSNKIYADSVKG [Y61 H58 I]: in assay [2], the koff came out at 0.000657 s⁻¹.

As for QNDQRPS [Y61 L50 Q], the koff in assay [1] came to 0.000348 s⁻¹.

As for SGGRSNIGSSTVK [Y61 L31 S], the koff in assay [3] was 0.000392 s⁻¹.

For ENDQRPS [Y61 L50 E], the koff in assay [1] came to 0.000617 s⁻¹.

As to SNDQRPS [Y61 L50 S], the koff in assay [1] was found to be 0.000286 s⁻¹.

On to FIRYDGSNKEYADSVKG [Y61 H58 E], for which the koff in assay [2] amounted to 0.000415 s⁻¹.

Turning to INDQRPS [Y61 L50 I], in assay [1], the koff worked out at 0.0012 s⁻¹.

As for GNDTRPS [Y61 L53 T], the dissociation rate constant (koff) in assay [1] is 0.000834 s⁻¹.

For the molecule VNDQRPS [Y61 L50 V], the koff in assay [1] was 0.000385 s⁻¹.

Turning to FIRYDGSNKNYADSVKG [Y61 H58 N], the koff in assay [2] was found to be 0.000831 s⁻¹.

On to TNDQRPS [Y61 L50 T], for which the koff in assay [1] was determined as 0.000272 s⁻¹.

Turning to FIRYDGSYKYYADSVKG [Y61 H56 Y], in assay [2], the koff stood at 0.00039 s⁻¹.

In the case of KNDQRPS [Y61 L50 K], the koff in assay [1] turned out to be 0.00243 s⁻¹.

GNDPRPS [Y61 L53 P]: the koff in assay [1] stood at 0.000974 s⁻¹.

For the molecule FIRYDGSNKPYADSVKG [Y61 H58 P], in assay [2], the koff was determined as 0.000628 s⁻¹.

With SGGRSNIGSNRVK [Y61 L32 R], in assay [3], the koff amounted to 0.0069 s⁻¹.

For the molecule GNDARPS [Y61 L53 A], the koff in assay [1] was 0.000554 s⁻¹.

For GNDRRPS [Y61 L53 R], the koff in assay [1] came out at 0.000614 s⁻¹.

For CNDQRPS [Y61 L50 C], the koff in assay [1] worked out at 0.000467 s⁻¹.

In the case of HGSHGN [Y61 H101 G], in assay [4], the koff turned out to be 0.00375 s⁻¹.

On to WNDQRPS [Y61 L50 W], for which the koff in assay [1] came to 0.000382 s⁻¹.

Turning to SGGRSNIGSNDVK [Y61 L32 D], the koff in assay [3] came to 0.000252 s⁻¹.

Consider GNDIRPS [Y61 L53 I], for which the koff in assay [1] came to 0.000855 s⁻¹.

Consider HGSHDH [Y61 H102 H], for which, in assay [4], the dissociation rate constant (koff) was 0.00018 s⁻¹.

With HGSHDK [Y61 H102 K], the off-rate constant (koff) in assay [4] was 0.000405 s⁻¹.

For GNDSRPS [Y61 L53 S], the off-rate constant (koff) in assay [1] was found to be 0.000866 s⁻¹.

As for LNDQRPS [Y61 L50 L], the koff in assay [1] turned out to be 0.000616 s⁻¹.

Consider HGSHDW [Y61 H102 W], for which the koff in assay [4] came to 0.000235 s⁻¹.

Consider DNDQRPS [Y61 L50 D], for which the koff in assay [1] was found to be 0.000348 s⁻¹.

Consider SGGRSNIGSNHVK [Y61 L32 H], for which the off-rate constant (koff) in assay [3] came out at 0.00026 s⁻¹.

In the case of FIRYDGSGKYYADSVKG [Y61 H56 G], in assay [2], the koff was 0.000272 s⁻¹.

For the molecule FIRYDGSIKYYADSVKG [Y61 H56 I], the koff in assay [2] turned out to be 0.000169 s⁻¹.

Take SGGRSNIGSQTVK [Y61 L31 Q]: the koff in assay [3] worked out at 0.000292 s⁻¹.

With FNDQRPS [Y61 L50 F], the koff in assay [1] amounted to 0.0348 s⁻¹.

In the case of FIRYDGSHKYYADSVKG [Y61 H56 H], the koff in assay [2] came out at 0.00042 s⁻¹.

In the case of FIRYDGSNKFYADSVKG [Y61 H58 F], the koff in assay [2] came to 0.000794 s⁻¹.

On to SGGRSNIGSETVK [Y61 L31 E], for which the koff in assay [3] came out at 0.000384 s⁻¹.

Consider FIRYDGSPKYYADSVKG [Y61 H56 P], for which the koff in assay [2] was 0.000299 s⁻¹.

Consider HGSHDS [Y61 H102 S], for which the koff in assay [4] was determined as 0.000325 s⁻¹.

FIRYDGSNKVYADSVKG [Y61 H58 V]: in assay [2], the koff worked out at 0.000524 s⁻¹.

Turning to FIRYDGSLKYYADSVKG [Y61 H56 L], in assay [2], the off-rate (koff) was 0.000264 s⁻¹.

Consider SGGRSNIGPNTVK [Y61 L30 P], for which the koff in assay [3] worked out at 0.00025 s⁻¹.

Take NNDQRPS [Y61 L50 N]: the koff in assay [1] was found to be 0.000305 s⁻¹.

For FIRYDGSNKSYADSVKG [Y61 H58 S], the koff in assay [2] was 0.000941 s⁻¹.

On to MNDQRPS [Y61 L50 M], for which the koff in assay [1] worked out at 0.000953 s⁻¹.

In the case of FIRYDGSFKYYADSVKG [Y61 H56 F], in assay [2], the koff stood at 0.000345 s⁻¹.

For FIRYDGSMKYYADSVKG [Y61 H56 M], the koff in assay [2] was 0.000383 s⁻¹.
